Assay results as given in the nanobody polyreactivity screen of Harvey et al. (2022).

Experiment: yeast display, Sf9 membrane polyspecificity reagent, FACS + sequencing; frameworks hold sequencing errors
Method in brief: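 Nanobodies came from a synthetic yeast display library in Saccharomyces cerevisiae BJ5465, induced with galactose for 36–48 hours and stained for 1 hour at 4 °C with 10% biotinylated, detergent-solubilized Sf9 membrane reagent. Cells were enriched on streptavidin microbeads and then FACS-sorted, with low and high (top ~1%) gates set on anti-HA fluorescence for expression and streptavidin fluorescence for reagent binding. Each polyreactivity label reflects the gate a clone came from. Genes were amplified by colony PCR, sequenced by MiSeq 2 × 250 and filtered by CDR length.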

| Sequence | polyreactivity (PSR sort gate) |
| --- | --- |
| QVQLVESGGGLVQAGGSLRLSCAASGFIFPRNVMGWYRQAPGKERELVAAISRSGGSTYYADSVKGRFTISRDNAKNTVYLQMNSLTPEDTAVYYCAKRPAYYYFVYQVPIGYDYWGQGTQVTVSS | high polyreactivity |
| QVQLVESGGGLVQAGGSLRLSCAASGSTFTINVMGWYRQAPGKERELVAAIHGGGRPNYADSVKGRFTISRDNAKKTVYLQMNSLKPEDTAVYYCAADGLSNVRQMDYWGQGTQVTVSS | low polyreactivity |
| QVQLVESGGGLVQAGGSLRLSCAASGRTFRYNAMGWYRQAPGKERELVAAISRSGGRTYYADSVKGRFTISRDNAKNTVYLQMNSLKPEDTAVYYCAAYYYTAGDSSSRYDYWGQGTQVTVSS | high polyreactivity |
| QVQLVESGGGLVQAGGSLRLSCAASGSIFGGNDMGWSRQAPGKERAWVAAITATSGSTYYADSVKGRFTISRDNAKNTVYLQMNSLKPEDTAVYYCAAKPVGTYSRPHDYWGQGTQVTVSS | low polyreactivity |
| QVQLVESGGGLVQAGGSLRLSCAASGSTFYTNDMGWYRQAPGKERELVAAITSAGNTNYADSVKGSFTISRDNAKNTVYLQMNSLKPEDTAVYYYYYYQYDYWGQGTQVTVSS | low polyreactivity |
| QVQLVESGGGLVQAGGSLRLSCAASGRTFIAYGMGWYRQAPGKERELVAAISRNGASTYYADSVKGRFTISRDNAKNTVYLQMNSLKPEDNAVYYCAAGYIRSRGGRWTHSGYWGQGTQVTVSS | high polyreactivity |
| QVQLVESGGGLVQAGGSLRLSCAASGSTFINYAMGWYRQAPGKERELVAAISSSGGRTYYADSVKGSFTISRDNAKNTVYFLMNSLKPEDTAVYYCAASGRKNGMNYWGQGTLVTVSS | high polyreactivity |
| QVQLVESGGGLVQAGGSLRLSCAASGINFGSNAMGWYRQAPGKERELVAAISKRGGNTYYADSVKGRFTISRDNAKNTVYLQMNSLKPEYTAVYYCATQQYLYAQKSYVEMDYWGQGTQVSVSS | high polyreactivity |
| QVQLVESGGGLVQAGGSLRLSCAASGSTFIVNAMGWYRQAPGKERELVAAISRGGSTYYADSVKGRFTISRDNAKNTVYLQMNSLKPEHTAVYYCAARIWRTRRYDYWGQGTQVTVSS | high polyreactivity |
| QVQLVESGGGLVQAGGSLRLSCAASGSILEVYAMGWYRQAPGKERELVAAISDGDSTYYADSVKGRFTISRDNAKNTVYLQMNSLKPEDTAVYYCAAEFVGTLWWYDYWGQGTQVTVSS | low polyreactivity |
| QVQLVESGGGLVQAGGSLRLSCAASGSIFEQYTMGWYRQAPGKERELVAAISRRSGRTYYADSVKGRFTISRDNAKNTVYLQMNRLKPEDTAVYYCNTVYYGNFYSTRYDYWGQGTQVTVSS | high polyreactivity |
| QVQLVESGGGLVQAGGSLRLSCAASGRIFTEYVMGWYRQAPGKERELVAAAITRGGSTNYADSVKGRFTISRDNAKNTVYLQMNSLKPEDTAVYYCNKDDWPVSRQLYTGKYDSWGQGTQVTVSS | low polyreactivity |
| QVQLVESGGGLVQAGGSLRLSCAASGSTLVDNGMGWYRHAPGKERELVASISSDGSTNYADSVKGRFTISRDNAKYTVYLQMNSLKTEDPAVYYCAADEGTGQASLSSNLSDYWGQGTQVTVSS | low polyreactivity |
| QVQLVESGGGLVQAGGSLRLSCAASGIIFGRNARGWYRQAPGKEREMVAGITRRGARTYYADSVKGRFTISRDNAKNTVDLQMKSLKPEDTSVYYCATYSVQTDYGRGDYWGQGTKVTVSS | high polyreactivity |
| QVQLVESGGGLVQAGGSLRLSCAASGRIFVVYVMGWYRQAPGKERELVAAISYSTGSTYYADSVKGRFTISRDNAKNTVYLQMKSLKPEDTAVYYCAVAAARKSFVSRYYYWGQGTQVTVSS | low polyreactivity |
| QVQLVESGGGLVQAGGSLRLSCAASGIIFGHYALGWYRQAPGKERELVAAITASSGNTYYADSVKGRFTISRDNAKNTVYLQMNSLKPEDTAVYYCAAVSYSSYRYDSWGQGTQVTVSS | high polyreactivity |
| QVQLVESGGGLVQAGGSLRLSCAASGSIFGSYTMGWYRQAPGKERELVAAITTSGSSTYYADSVKGRFTISRDNAKNTVYLQMNSLKPEDTAVYYCSAEYYVTYPPYGWYDYWGHGTQVTVSS | high polyreactivity |
| QVQLVESGGGLVQAGGSLRLSCAASGLTFEKYSMGWYRQAPGKERELVAAISQDGGSTYYADSVKGRFTISRDNAKNTVYLQMNSVKPEDTAVYYCAAEDPDSWLPWDLFDYWGQGTQVTVSS | low polyreactivity |
| QVHLVESGGGLVQAGGSLLLSCAASGFTFTAYAMGWYRQAPGKERELVAAISYRGGRTNYAYSVKGRFTISRDNAKNTVYLQMNSLKPEDTAVYYCASRQGISTREMDYWGQGTQVTVSS | high polyreactivity |
| QVQLVESGGGLVQAGGSLRLSCAASGIIFYKYAMGWYRQAPGKERELVAVISSGGSTYYADSVKGRFTISRDNAKNTVYLQMNSLKPEYNAVYYCNADCYRRGYDYWGKGTQVTVSS | high polyreactivity |
| QVQLVESGGGLVQAGGSLRLSCAASGSTFIGYAMGWYRQAPGKERELVAAISRSDGSTYYADSVKGRFTISRDNAKNTVYLQMNSLKPEDTAVYYCNADYYRWYDYWGQGTQVTVSS | low polyreactivity |
